Where a chain is given by its changes, count along the chain named.
Experiments:
[1] = target: T1, HA-GCN4 hAPRIL (amino acid residues 105-250) (human, UniProt O75888 105-250); assay: ELISA on trimeric (GCN4-stabilised) human APRIL
T1 construct: Bought (R&D Systems); also called HA-tagged GCN4 human APRIL; HA-GCN4-huAPRIL; not shown: N-terminal HA tag; GCN4 isoleucine zipper oligomerization domain
T1 sequence: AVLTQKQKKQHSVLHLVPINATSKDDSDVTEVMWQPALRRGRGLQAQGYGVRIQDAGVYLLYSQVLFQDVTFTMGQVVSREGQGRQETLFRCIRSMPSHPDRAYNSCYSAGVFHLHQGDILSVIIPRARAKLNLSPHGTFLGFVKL
From the text: APRIL trimer was stabilized by the N-terminal fusion of APRIL with an isoleucine zipper (GCN4) oligomerization domain Binding of APRIL to human TACI-Fc is shown for comparative purposes.

[2] = target: T1, HA-GCN4 hAPRIL (amino acid residues …); assay: blocking ELISA; blocked: human APRIL binding to TACI-Fc
[3] = target: T1, HA-GCN4 hAPRIL (amino acid residues …); assay: blocking ELISA; blocked: human APRIL binding to BCMA-Fc
Description: (§1) Recombinant TACI-Fc or BCMA-Fc was coated on 96 well plates in 0.1 M carbonate-bicarbonate buffer (pH 9.6), overnight at 4° C. Plates were washed three times with 1×PBST (PBS+0.025% Tween 20) followed by blocking with 1% BSA in 1×PBS, 37° C. for 1 hour. All subsequent wash steps were carried out with 1×PBST. To assess antibody blocking, either 15 ng/mL or 50 ng/mL HA-GCN4-huAPRIL was preincubated with varying antibody concentrations ranging from 0.03-30 μg/mL in binding buffer comprised of 1% BSA and 0.025% Tween-20 in 1×PBS. Preincubation was carried out at 30° C. for 1 hour with mixing. Antibody-APRIL premix with 50 ng/mL APRIL or 15 ng/mL APRIL was then added to TACI-Fc coated or BCMA-Fc coated plates, respectively, and incubated for an additional hour at 30° C. HA-tagged APRIL binding to either receptor was quantified using a goat polyclonal anti-HA tag-HRP antibody (Abcam) added at a 1:10000 dilution followed by colorimetric development using 100 μl/well of freshly prepared TMB substrate (KPL) carried out for up to 30 minutes at room temperature before quenching enzymatic reaction by the addition of 1N sulfuric acid. ELISA signal was quantified by absorbance at 450 nm. ELISA data was analyzed by non-linear regression. IC₅₀ values were calculated based on a 4 parameter fit of antibody titration curves. […] Non-blocking antibodies Aprly-1 or Aprly-5 (Enzo Biosciences) were used as negative controls. Mouse specific, blocking antibody aprily-1-1 (Adipogen) was generally used as a positive control in experiments using mouse APRIL (HA-GCN4-mAPRIL).
Assay is based on receptor blocking ELISA using recombinant human APRIL (R&D Systems) and either human TACI-Fc (FIG. 30A) or BCMA-Fc (FIG. 30B).

[4] = target: T1, HA-GCN4 hAPRIL (amino acid residues …); assay: indirect ELISA on human APRIL; column head prints IC50 (pM), legend paragraph 725 calls the values EC50
From the text: Purified antibodies were further characterized for APRIL binding, APRIL species cross reactivity (human APRIL vs. mouse APRIL), and receptor blocking activity using TACI-Fc. For binding, an APRIL-based indirect ELISA was used to determine by first approximation the relative affinity of purified anti-APRIL antibodies to either human APRIL or mouse APRIL. ELISA method was as generally described above. […] Blocking and wash steps were completed as described. Binding of anti-APRIL antibodies to APRIL was quantified using an 8 point dilution of test antibody that spanned over a four log scale. Antibody binding to APRIL was detected using a rabbit anti-mouse IgG (H+L)-HRP conjugate (Jackson ImmunoResearch Laboratories). Antibody binding data was analyzed by non-linear regression analysis using a 3 parameter fit to determine max binding and apparent EC₅₀ values. […] Mouse specific antibody Apry-1-1 (Adipogen) was likewise used for quantification of antibody binding to mouse APRIL.

[5] = target: T1, HA-GCN4 hAPRIL (amino acid residues …); assay: blocking ELISA; blocked: human APRIL binding to human TACI-Fc; set-up: concentration or dose not given beside the values
Description: (§2) FIGS. 19A-19B depict the antibody inhibition of APRIL binding to TNFSF receptors TACI (FIG. 19A) and BCMA (FIG. 19B). Assay is based on blocking ELISA using recombinant human APRIL (R&D Systems) and Human TACI-Fc. Inhibition was analyzed by non-linear regression using a four parameter fit.
as §1

[6] = target: T1, HA-GCN4 hAPRIL (amino acid residues …); assay: blocking ELISA; blocked: human APRIL binding to human BCMA-Fc; set-up: concentration or dose not given beside the values
Description: as §2, §1

[7] = target: T1, HA-GCN4 hAPRIL (amino acid residues …); assay: blocking ELISA, 4-parameter fit; blocked: human APRIL binding to human BCMA-Fc
Description: as §2, §1

[8] = target: T1, HA-GCN4 hAPRIL (amino acid residues …); assay: blocking ELISA, 4-parameter fit; blocked: human APRIL binding to human TACI-Fc
Description: as §2, §1

[9] = target: T1, HA-GCN4 hAPRIL (amino acid residues …); assay: indirect ELISA on human APRIL
[10] = target: T1, HA-GCN4 hAPRIL (amino acid residues …); assay: cell-based or functional assay
[11] = target: T1, HA-GCN4 hAPRIL (amino acid residues …); assay: blocking ELISA; blocked: human APRIL binding to human TACI-Fc; set-up: concentration or dose not given beside the values; remark: listed apart in the source
Description: as §1

[12] = target: T1, HA-GCN4 hAPRIL (amino acid residues …); assay: blocking ELISA; blocked: human APRIL binding to human BCMA-Fc; set-up: concentration or dose not given beside the values; remark: listed apart in the source
Description: as §1

[13] = target: T1, HA-GCN4 hAPRIL (amino acid residues …); assay: blocking ELISA, 4-parameter fit; blocked: human APRIL binding to human TACI-Fc; remark: listed apart in the source
Description: as §1

[14] = target: T1, HA-GCN4 hAPRIL (amino acid residues …); assay: blocking ELISA, 4-parameter fit; blocked: human APRIL binding to human BCMA-Fc; remark: listed apart in the source
Description: as §1

B1: HuTACI-Fc-001 (Fc fusion, human, UniProt O14836 29-110, looked up)
chain: VAMRSCPEEQYWDPLLGTCMSCKTICNHQSQRTCAAFCRSLSCRKEQGKFYDHLLRDCISCASICGQHPKQCAYFCENKLRS
notes: range 29-110; also called human TACI-Fc; recombinant TACI-Fc; not shown: Fc portion of human IgG1 beginning at position E98 in CH1
[1]
  EC50: 0.103 nM

B2: 4540-033 (antibody, V domains shown)
VH: QVQLVQSGAEVKKPGASVKVSCKASGYTFADYYINWVRQAPGQGLEWMGWIFPGSGSTYYAQKLQGRVTMTTDTSTSTAYMELRSLRSDDTAVYYCARGDSGRAMDYWGQGTLVTVSS
VL: DIQMTQSPSSLSASVGDRVTITCQASQDINKYLAWYQHKPGKAPKLLIHYTSTLETGVPSRFSGSGSGTDFTFTISSLQPEDIATYYCLQYDNLLTFGGGTKVEIK
[2]
  IC50: 0.35 nM
  Relative Activity (normalised to 2419): 1.26
[3]
  IC50: 3.68 nM
  Relative Activity (normalised to 2419): 15.6

B3: 3934 (antibody, V domains shown)
VH: QVQLQQSGPELVKPGASVKLSCKAAGYIFTDYTINWVKQSPGQGLEWIGWIYPGSGNRKYNDKFKGKATMTADKSSSTAYMQLSSLTSEDSAVYFCARESNYVGYYAMDYWGQGTSVTVSS
VL: DVLMTQTPLSLPVSLGDQASISCRSSQSVVNSNGNTYLEWYLQKPGQSPNLLIYKVSNRFSGVPDRFSGSGSGTDFTLKISRVEAEDLGVYYCFQGSHVPWTFGGGTKLEIK
notes: also called monoclonal antibody 3934
[4]
  EC50: 0.0101 nM
[5]
  % Inhibition: 96%
[6]
  % Inhibition: 98%
[7]
  IC50: 0.21 nM
[8]
  IC50: 2.43 nM

B4: 2419-0406 (antibody, V domains shown)
VH: QVQLVQSGAEVKKPGSSVKVSCKASGYTFTDYTIHWVRQAPGQGLEWMGWIYPLRGSINYAEKFKGRVTLTADKSTSTVYMELSSLRSEDTAVYFCARHGAYYSNAFDYWGQGTLVTVSS
VL: EIVMTQSPATLSVSPGERATLSCRASESVDNDGIRFLHWYQQKPGQAPRLLIYRASTRATGIPARFSGSGSRTEFTLTISSLQSEDFAVYYCQQSNKDPYTFGGGTKVEIK
[2]
  IC50: 0.33 nM
  Relative Activity (normalised to 2419): 1.2
[3]
  IC50: 0.25 nM
  Relative Activity (normalised to 2419): 1.05

B5: 2419-1310 (antibody, V domains shown)
VH: B4 VH with S16A, P41T, E62Q, K65Q, L70M, D73N, T76I
VL: DIVMTQSPDSLAVSLGERATINCKSSQSVDNDGIRFLHWYQQKPGQPPKLLIYRASTRESGVPDRFSGSGSGTDFTLTISSLQAEDVAVYYCQQSNKDPYTFGGGTKVEIK
[2]
  IC50: 0.3 nM
  Relative Activity (normalised to 2419): 1.09
[3]
  IC50: 0.27 nM
  Relative Activity (normalised to 2419): 1.14
[9]
  EC50: 2.19 pM

B6: 2419-0806 (antibody, V domains shown)
VH: EVQLVQSGAEVKKPGESLKISCKASGYTFTDYTIHWVRQMPGKGLEWMGWIYPLRGSINYSPSFQGQVTISADKSISTVYLQWSSLKASDTAMYFCARHGAYYSNAFDYWGQGTLVTVSS
VL: B4 VL
[2]
  IC50: 0.32 nM
  Relative Activity (normalised to 2419): 1.17
[3]
  IC50: 0.21 nM
  Relative Activity (normalised to 2419): 0.89
[9]
  EC50: 2.31 pM

B7: monoclonal antibody 2419-0205 (antibody, IgG2, V domains shown)
VH: B4 VH with E62Q, K65Q, L70I, V79A
VL: B4 VL with T57N, A59E, R72G
[2]
  IC50: 0.31 nM
  Relative Activity (normalised to 2419): 1.12
[3]
  IC50: 0.17 nM
  Relative Activity (normalised to 2419): 0.71
[10]
  IC50 (inhibition of APRIL-mediated BCMA NFκB signaling): ~0.32 nM
  IC50 (inhibition of APRIL-mediated TACI NFκB signaling): ~0.81 nM
[9]
  EC50: 2.26 pM

B8: 2419-1305 (antibody, V domains shown)
VH: B4 VH with S16A, P41T, E62Q, K65Q, L70M, D73N, T76I
VL: B4 VL with T57N, A59E, R72G
[2]
  IC50: 0.29 nM
  Relative Activity (normalised to 2419): 1.06
[3]
  IC50: 0.15 nM
  Relative Activity (normalised to 2419): 0.62
[9]
  EC50: 2.41 pM

B9: 2419-1306 (antibody, V domains shown)
VH: B4 VH with S16A, P41T, E62Q, K65Q, L70M, D73N, T76I
VL: B4 VL
[2]
  IC50: 0.28 nM
  Relative Activity (normalised to 2419): 1.03
[3]
  IC50: 0.17 nM
  Relative Activity (normalised to 2419): 0.72
[10]
  IC50 (inhibition of APRIL-mediated BCMA NFκB signaling): ~0.3 nM
  IC50 (inhibition of APRIL-mediated TACI NFκB signaling): ~0.66 nM
[9]
  EC50: 3 pM

B10: monoclonal antibody 3327 (antibody, V domains shown)
VH: EVQLQQSGPELVKPGASVKMSCKASGYSFTGYFMNWVKQSHGKSLEWIGRINPYNGDTFYNQKFKGKATLTVDKSSSTAHMELRSLTSEDSALYYCASEGDGYYWYFDVWGAGTTVTVSS
VL: not shown
[11]
  % Inhibition: 89%
[12]
  % Inhibition: 99%
[13]
  IC50: 3.16 nM
[14]
  IC50: 2.35 nM

— patent US20170145086A1 (VISTERRA, published 2017)
